Legend:
[1] = system: histone H3 phosphorylation at Ser 10 (H3 pS10); assay: H3 pS10 immunofluorescence in HeLa cells infected with the ospF strain, kinase inhibitors; type: cell-based; conditions: 60 min pretreatment with both U0126 (10 μM) and SB203180 (2.5 μM), infection 30 min
Method: Indirect immunofluorescence detection was performed with anti-phospho-histone H3 S10 polyclonal antibody. […] Cells were left untreated (ns) or infected with the ospF strain for 30 min. IF was performed with anti-H3 methyl K9-pS10 antibody.
Indirect immunofluorescence. Cells were fixed with 3.7% paraformaldehyde in PBS for 10 min, permeabilized with 0.5% Triton-X in PBS. The following antibodies were used: anti-phospho-p42/p44 antibody (Sigma); anti-p42/p44, anti-phospho-histone H3 S10 (Upstate Cell Signaling), anti-acetyl histone H4 (Lys14) (Upstate Biotechnology) antibodies.

^33P-labeled Erk2 = assay: 33P-labeled Erk2 phosphatase assay, steady state kinetics; conditions: 100 nM phosphatase, pH 8, 30° C., 10 minutes, Michaelis-Menten fit
Method: Preparation of the ^33P-labeled Erk2 kinase substrate. The in vitro phosphorylation of the GST-Erk2 fusion protein was carried out by incubating 500 μg purified GST-Erk2 coupled to beads with 20 μg His6-tagged activated MEK1 (Upstate Cell Signaling) in a kinase buffer (50 mM Tris pH 7.5, 2 mM DTT, 10 mM MgCl2) with 100 μM ATP (γ-3P ATP, 3000 Ci/mmol) for 2 hours at 30° C. The beads were washed 5 times with 30 ml of 1× PBS and eluted in 50 mM Tris pH 8, 10 mM glutathione, and 10% glycerol. The fractions were dialyzed overnight to remove residual ATP in 50 mM Tris pH8, 50 mM NaCl, and 10% glycerol.
In vitro phosphatase assay. […] Therefore, the reaction was initiated by the addition of the phosphatase, incubated for 10 minutes at 30° C. and terminated by adding 200 μl cold 20% trichloroacetic acid. The samples were centrifuged at 10,000×g and 200 μl of the supernatant was mixed with 5 ml of scintillation fluid for taking radioactivity measurements. The product generated (inorganic phosphate) was kept below 5% of the initial substrate concentrations. Reactions containing the Erk2 substrate and buffer without phosphatase was used as a blank for each data point. The data were fitted to the Michaelis-Menten equation using the software Kaleidagraph.
The kinetic parameters were determined by following the production of radioactive inorganic phosphate.

phospho p38-GST = target: T1, phospho p38-GST (Homo sapiens, UniProt Q16539); assay: In vitro phosphatase assay on phospho p38 (Western blot); type: biochemical; conditions: purified phospho-MAP kinase, 50 nM
T1 construct: GST
T1 sequence (Q16539 whole entry): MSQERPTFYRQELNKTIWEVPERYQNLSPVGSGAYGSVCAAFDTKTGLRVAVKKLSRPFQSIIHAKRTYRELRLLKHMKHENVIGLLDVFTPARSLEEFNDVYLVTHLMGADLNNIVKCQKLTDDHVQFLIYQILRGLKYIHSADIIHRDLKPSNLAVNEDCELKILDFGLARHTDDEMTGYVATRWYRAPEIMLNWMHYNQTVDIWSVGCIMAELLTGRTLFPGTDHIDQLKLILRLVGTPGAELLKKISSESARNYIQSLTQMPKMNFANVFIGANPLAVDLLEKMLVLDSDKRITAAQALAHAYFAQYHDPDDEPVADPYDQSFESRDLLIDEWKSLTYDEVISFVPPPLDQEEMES

[2] = system: histone H3 phosphorylation at Ser 10 (H3 pS10); assay: H3 pS10 induced by okadaic acid in HeLa cells overexpressing OspF; type: cell-based; conditions: HeLa transfected with pRK5myc-OspF, 200 nM okadaic acid 3 hours
Method: (§1) (A) HeLa cells were left untreated (ns) or infected with the WT or the ospF strain at the indicated time. Indirect immunofluorescence detection was performed with anti-phospho-histone H3 S10 polyclonal antibody. (B) HeLa cells were synchronized by a double thymidine block (2 mM thymidine) and left untreated (ns) or infected with the WT or the ospF strain at the indicated time. Immunoblots were probed with anti-H3 phospho S10 (H3 pS10), anti-H3 methyl K9-phospho S10(H3 metK9-pS10), anti-H3 phospho S10. acetyl-K14 (H3 p-S10/Ac-K14), anti Histone H3 polyclonal anti-pp38 and pErk antibodies. (C) HeLa cells were transfected with pRK5myc-OspF vector and treated with 200 nM okadaic acid for 3 hours. IF was performed with anti-myc (red) and anti-H3 methyl K9-pS10 (green) antibodies. […] (D) One micogram of calf-thymus histone (Sigma) was incubated with 300 ng of His-OspF or with 120 U of λ phosphatase for 2 hours at 30° C. Western blot was performed with an anti-metK9-pS10 antibody. (E) One micogram of peptide metK9-S10 was spotted onto a nitrocellulose membrane that was incubated with buffers, 5 μg/ml of OspF, or 2000 U/ml of lambda phosphatase for 2 hours at 30° C. Western blot was performed with an anti-metK9-pS10 antibody. (F) HeLa cells were pretreated for 60 min with either the MEK1 inhibitor U0126 (10 μM) or the p38 inhibitor SB203180 (2.5 μM) or both. […]

phospho JNK1 Histidine = target: T2, phospho JNK1 Histidine (Homo sapiens, UniProt P45983); assay: In vitro phosphatase assay on phospho JNK1 (Western blot); type: biochemical; conditions: purified phospho-MAP kinase, 50 nM
T2 construct: His
T2 sequence (P45983 whole entry): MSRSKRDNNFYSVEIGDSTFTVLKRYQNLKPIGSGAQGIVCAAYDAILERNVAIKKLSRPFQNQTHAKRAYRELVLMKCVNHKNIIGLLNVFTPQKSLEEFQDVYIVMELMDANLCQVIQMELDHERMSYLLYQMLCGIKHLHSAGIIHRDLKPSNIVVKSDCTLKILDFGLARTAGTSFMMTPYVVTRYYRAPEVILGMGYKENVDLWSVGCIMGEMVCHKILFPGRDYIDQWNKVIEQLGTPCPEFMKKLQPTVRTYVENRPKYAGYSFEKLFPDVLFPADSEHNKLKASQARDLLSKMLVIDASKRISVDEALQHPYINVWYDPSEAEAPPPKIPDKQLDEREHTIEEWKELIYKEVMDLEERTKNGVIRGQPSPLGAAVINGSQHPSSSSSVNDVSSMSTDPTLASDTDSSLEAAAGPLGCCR

[3] = system: histone H3 purified from calf thymus; assay: In vitro dephosphorylation of histone H3 / H3 tail peptides; type: biochemical; conditions: 2 hours at 30° C., even when enzyme concentration increased 100 fold
Method: as §1

pErk2-GST = assay: In vitro phosphatase assay on phospho-Erk2 (Western blot); conditions: purified protein, Western blot with anti phospho-Erk
IL-12 = assay: Murine model of pulmonary infection, lung cytokines by ELISA; type: in vivo, mice; conditions: lungs infected with M90T or ospF strain, 24 hours post-infection (FIG. 10)
Method: The cytokine/chemokine network induced upon infection with Shigella flexneri was analyzed by comparing the profiles obtained upon infection with the invasive strain carrying the virulence plasmid (INV+) and the non-invasive, plasmidless strain (INV−). The murine model of pulmonary infection was used since it was the only valid model to analyze the specific host immune response upon Shigella infection. Following infection with INV−, a Th1 type-network (IL-12, IL-18, IFN-γ, CCL9, CCL10, CCL13, and CCL4) was induced. In contrast, a Th2/Tr1 profile (IL-10, CCL1, CCL24 and CCL2) was induced upon infection with INV+. The difference observed was not due to the bacterial dose used for the infection, but was dependent on the presence or absence of the virulence plasmid.
Some of these bacterial effectors are injected within the host cells by a type III secretion apparatus. Use of different bacterial mutants, has highlighted that the bacterial effectors involved in the immunomodulation were effectors secreted by the type III-secretion apparatus. Finally, OspF, a type III-secreted bacterial effector was responsible fore the control of IL-12 production (FIG. 10).

NF-κB reporter construct = assay: TNF-α-induced NF-κB reporter construct in Caco 2 cells; type: cell-based, human; conditions: overexpression in Caco 2 cells
From the text: In addition to the classical MAPK-dependent target genes, OspF also repressed expression of some NF-κB-dependent chemokine genes such as IL-8. The IL-8 promoter contains an NF-κB binding site essential for expression of this gene (Hoffmann et al., 2002). Therefore, the inventors looked whether OspF interferes with the NF-κB signaling pathway. […] (FIG. 5E).

endogenous Erk = assay: Erk phosphorylation in transfected HeLa cells stimulated by PMA; conditions: HeLa cells transfected with expression plasmid, PMA stimulation
p46 and p54 JNK kinases = assay: JNK phosphorylation in transfected HeLa cells stimulated by TNF; type: cell-based; conditions: TNF stimulation
p38 MAP kinases = assay: p38 phosphorylation in transfected HeLa cells stimulated by TNF; type: cell-based; conditions: TNF stimulation

With `C[S+]([O-])c1ccc(-c2nc(-c3ccc(F)cc3)c(-c3ccncc3)[nH]2)cc1` (stereo not shown) [SB 203180] the “H3 pS10 signal induced by the ospF strain” value [1] was “fully inhibited”.

`N#CC(=C(/N)Sc1ccccc1N)/C(C#N)=C(\N)Sc1ccccc1N` [U0126] was tested, and the “H3 pS10 signal induced by the ospF strain” value [1] was “fully inhibited”.

B1: MKP1: known mammalian dual specific phosphatase used as a control (protein, UniProt P28562 1-367, looked up)
Dual specificity protein …: MVMEVGTLDAGGLRALLGERAAQCLLLDCRSFFAFNAGHIAGSVNVRFSTIVRRRAKGAMGLEHIVPNAELRGRLLAGAYHAVVLLDERSAALDGAKRDGTLALAAGALCREARAAQVFFLKGGYEAFSASCPELCSKQSTPMGLSLPLSTSVPDSAESGCSSCSTPLYDQGGPVEILPFLYLGSAYHASRKDMLDALGITALINVSANCPNHFEGHYQYKSIPVEDNHKADISSWFNEAIDFIDSIKNAGGRVFVHCQAGISRSATICLAYLMRTNRVKLDEAFEFVKQRRSIISPNFSFMGQLLQFESQVLAPHCSAEAGSPAMAVLDRGTSTTTVFNFPVSIPVHSTNSALSYLQSPITTSPSC
In the case of B1, the “kcat of Erk2 dephosphorylation” value (^33P-labeled Erk2) is reported as 0.0006 s⁻¹.

B2: OspF: protein encoded by the Shigella ospF gene, a dual specific phosphatase; NCBI Accession CAC05773 (protein)
chain: MPIKKPCLKLNLDSLNVVRSEIPQMLSANERLKNNFNILYNQIRQYPAYYFKVASNVPTYSDICQSFSVMYQGFQIVNHSGDVFIHACRENPQSKGDFVGDKFHISIAREQVPLAFQILSGLLFSEDSPIDKWKITDMNRVSQQSRVGIGAQFTLYVKSDQECSQYSALLLHKIRQFIMCLESNLLRSKIAPGEYPASDVRPEDWKYVSYRNELRSDRDGSERQEQMLREEPFYRLMIE
For B2, the “dephosphorylation of phospho p38” value (phospho p38-GST) was “directly dephosphorylated”, the “induction of H3 pS10 by okadaic acid” value [2] was “efficiently prevented induction” and the “Vmax of Erk2 dephosphorylation” value (^33P-labeled Erk2) was 9.89 pM/s. The “kcat of Erk2 dephosphorylation” value (^33P-labeled Erk2) was 0.0001 s⁻¹, the Km (^33P-labeled Erk2; read-out: Km of Erk2 dephosphorylation) was 0.204 µM and the “dephosphorylation of phospho JNK1” value (phospho JNK1 Histidine) was “failed to dephosphorylate”. For the same molecule, the “direct dephosphorylation of histone H3 (metK9-pS10 / pS10)” value [3] was “did not directly dephosphorylate”, the “dephosphorylation of phospho-Erk2” value (pErk2-GST) was “directly dephosphorylated” and the “IL-12 production in vivo” value (IL-12) was “down regulated”. For the same molecule, the “TNF-α-induced activation of NF-κB reporter” value (NF-κB reporter construct) was “did not impair”.

B3: myc-labelled OspF: OspF with a myc label expressed from plasmid pRK5myc-OspF (protein)
chain: B2 chain
modifications: left off: small tags and cut ends
B3 was tested, and the “effect on Erk phosphorylation / ability to dephosphorylate Erk in cells” value (endogenous Erk) was “prevented phosphorylation”, the “effect on JNK phosphorylation in cells” value (p46 and p54 JNK kinases) was “not” and the “effect on p38 phosphorylation in cells” value (p38 MAP kinases) was “prevented phosphorylation”.
